From PMC7033129, “Structural basis for substrate specificity and catalysis of α1,6-fucosyltransferase” (Nature Communications, 2020) come the findings set out here.

This data set deals with the molecule itself. The experiment in a line: crystal structure; C2 crystals of HsFUT8 with 5 mM GDP and 5 mM G0, 1.95 Å; two molecules in the asymmetric unit, each forming a dimer with a molecule of the neighbouring asymmetric unit.

B1: human α1,6-fucosyltransferase (HsFUT8), residues 68–575 (enzyme, UniProt Q9BYC5 68-575, looked up)
chain: RIPEGPIDQGPAIGRVRVLEEQLVKAKEQIENYKKQTRNGLGKDHEILRRRIENGAKELWFFLQSELKKLKNLEGNELQRHADEFLLDLGHHERSIMTDLYYLSQTDGAGDWREKEAKDLTELVQRRITYLQNPKDCSKAKKLVCNINKGCGYGCQLHHVVYCFMIAYGTQRTLILESQNWRYATGGWETVFRPVSETCTDRSGISTGHWSGEVKDKNVQVVELPIVDSLHPRPPYLPLAVPEDLADRLVRVHGDPAVWWVSQFVKYLIRPQPWLEKEIEEATKKLGFKHPVIGVHVRRTDKVGTEAAFHPIEEYMVHVEEHFQLLARRMQVDKKRVYLATDDPSLLKEAKTKYPNYEFISDNSISWSAGLHNRYTENSLRGVILDIHFLSQADFLVCTFSSQVCRVAYEIMQTLHPDASANFHSLDDIYYFGGQNAHNQIAIYAHQPRTADEIPMEPGDIIGVAGNHWDGYSKGVNRKLGRTGLYPSYKVREKIETVKYPTYPEAEK
notes: α1,6-fucosyltransferase (FUT8), human, amino acid residues 68–575 (coiled-coil, catalytic and SH3 domains); Expressed from pHLSec-12His-GFP-TEV-HsFUT8 after the vector's secretion signal; His-GFP cut off with TEV protease before crystallisation; Crystallised with GDP and the N-glycan G0; source: HEK293F, transfected, secreted into the supernatant, purified (His-Trap, TEV cleavage, second …)
B1: the binding result is “binds”.
